Assays:
K48 diUb = K48 diUb (Homo sapiens); test: MST
K29 diUb = K29 diUb (Homo sapiens); test: MST
K11-linked diUb [1] = target: T1, K11-linked diUb (UniProt P0CG47 1-76, K11-linked: one Ub is ubiquitinated on the side chain of K11); test: MST
K63 diUb = K63 diUb (Homo sapiens); test: MST
K33-linked diUb = K33-linked diUb (UniProt P0CG47 1-76, K33-linked: one Ub is ubiquitinated on the side chain of K33); test: MST
K11-linked diUb [2] = target: T1, K11-linked diUb; test: ITC
K6-linked diUb = K6-linked diUb (UniProt P0CG47 1-76, K6-linked: one Ub is ubiquitinated on the side chain of K6); test: MST

Kd (K48 diUb)	Kd (K29 diUb)	Kd (K11-linked diUb [1])	Kd (K63 diUb)	Kd (K33-linked diUb)	Kd (K11-linked diUb [2])	Kd (K6-linked diUb)	Binder
82 µM	55 µM	49 µM	130 µM	120 µM			dimerized K6 affimer, fluorescently labelled (designed binder, Alexa488-maleimide or NT-647-maleimide on a single cysteine) ENSLEIEELARFAVDEHNKKENALLEFVRVVKAKEQSWKDDELFDTMYYLTLEAKDGGKKKLYEAKVWVKASGIVMYQMNFKELQEFKPVENSLEIEELARFAVDEHNKKENALLEFVRVVKAKEQSWKDDELFDTMYYLTLEAKDGGKKKLYEAKVWVKASGIVMYQMNFKELQEFKPV
					0.007 µM		K33 affimer (designed binder) MSAATGVRAVPGNENSLEIEELARFAVDEHNKKENALLEFVRVVKAKEQIWEMDASKETMYYLTLEAKDGGKKKLYEAKVWVKMTHWIGAMNNFKELQEFKPVGDAAAAHHHHHHG
120 µM	61 µM		83 µM			210 µM	dimerized K33/K11 affimer, fluorescently labelled (designed binder, Alexa488-maleimide or NT-647-maleimide on a single cysteine) ENSLEIEELARFAVDEHNKKENALLEFVRVVKAKEQIWEMDASKETMYYLTLEAKDGGKKKLYEAKVWVKMTHWIGAMNNFKELQEFKPVENSLEIEELARFAVDEHNKKENALLEFVRVVKAKEQIWEMDASKETMYYLTLEAKDGGKKKLYEAKVWVKMTHWIGAMNNFKELQEFKPV

— PMC5640506 (2017)
